Literature values in patent US20030232389A1, “Urokinase peptide structure mimetics” (priority 2000, published 2003).
Positions of bridges follow the written chain, without caps; N, C: chain ends. Non-standard residues stand in square brackets, D forms with d. No end group written: not given here.

Target: uPAR (uPA receptor) (Homo sapiens, UniProt Q03405)
Conditions: cyclic disulfide peptide mimicking loop B of the uPA growth factor domain; value from German patent application 199 33 701.2

uPAR (uPA receptor), sequence (Q03405 23-305): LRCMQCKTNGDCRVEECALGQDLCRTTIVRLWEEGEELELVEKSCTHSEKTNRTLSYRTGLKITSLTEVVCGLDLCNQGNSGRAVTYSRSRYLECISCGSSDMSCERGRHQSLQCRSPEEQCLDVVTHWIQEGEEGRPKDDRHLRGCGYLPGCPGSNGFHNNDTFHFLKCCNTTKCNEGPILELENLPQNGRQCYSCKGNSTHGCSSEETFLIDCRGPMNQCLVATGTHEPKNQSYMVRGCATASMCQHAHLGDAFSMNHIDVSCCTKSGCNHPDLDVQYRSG

- IC50: 0.078 µM
Substance: cyclo[1,9] D-Cys-Asn-Lys-Tyr-Phe-Ser-Asn-Ile-Cys-Trp ([dC]NKYFSNICW; disulfide 1-9) [cyclo[21,29][D-Cys21Cys29]-uPA21-30]
